{"source": "paper PMC8240970", "about": "“Orally delivered polycurcumin responsive to bacterial reduction for targeted therapy of inflammatory bowel disease” (Drug Delivery, 2017)", "key": {"[1]": {"test_system": "TNF-α", "test": "TNF-α level in colonic tissue by ELISA, DSS-induced IBD mice", "type": "in vivo, female C57BL/6 mice", "settings": "oral, Cur 50 mg/kg", "procedure": "(§1) Animal experiments were performed in female C57BL/6 mice (eight weeks, 18–20 g). Colitis was induced by feeding mice with a 3% (wt./vol) DSS solution as drinking water for seven days. The daily evaluation of mice was based on changes in body weight and development of the clinical symptoms of colitis. Disease activity index (DAI) was calculated according to the parameter previously reported (Li et al., [2015]). […] The dosage of Cur was set at 50 mg/kg. Mice were sacrificed on day 7, and histological assessment of colonic inflammation was carried out by hematoxylin and eosin (H&E) staining of 5 μm colonic tissue sections, observed by microscopy (×20 magnification). The samples were scored for inflammatory infiltration (0–3), epithelial abnormality (0–3) and crypt damage (0–3) and then the values of the three variables were summed as an indicator of inflamed degree (Magro et al., [2013]). The levels of IL-6 and TNF-α in homogenized colonic tissue were measured by quantitative enzyme-linked immunosorbent assay (ELISA) kits according to manufacturer’s instructions (R&D Systems Inc., Minneapolis, MN). The final values of IL-6 and TNF-α were expressed as pg/mg or ng/mg protein (Qiao et al., [2014])."}, "[2]": {"test_system": "IL-6", "test": "IL-6 level in colonic tissue by ELISA, DSS-induced IBD mice", "type": "in vivo, female C57BL/6 mice", "settings": "oral, Cur 50 mg/kg", "procedure": "as §1"}, "[3]": {"test_system": "DSS-induced IBD", "test": "Pharmacodynamics in a murine DSS-induced IBD model (body weight, DAI, colon length, histology)", "type": "in vivo, female C57BL/6 mice", "settings": "for disease activity index (DAI) / recovery of shortened colon length / weight loss: 3% DSS for seven days, daily gavage, Cur 50 mg/kg; for weight loss: versus DSS or Cur suspension", "procedure": "as §1, with “[2013]).” for “[2013]). The levels of IL-6 and TNF-α in homogenized colonic tissue were measured by quantitative enzyme-linked immunosorbent assay (ELISA) kits according to manufacturer’s instructions (R&D Systems Inc., Minneapolis, MN). The final values of IL-6 and TNF-α were expressed as pg/mg or ng/mg protein (Qiao et al., [2014]).”"}, "[4]": {"test_system": "Caco-2 cells", "test": "In vitro cytotoxicity by MTT assay", "settings": "1 to 100 μg/mL Cur, 2 h incubation", "protocol": "In vitro cytotoxicity of PCur and Cur solution was assessed in Caco-2 cells by MTT assay. Caco-2 cells were seeded at a density of 1 × 10^5 cells/mL in 100 μL DMEM culture medium in a 96-well plate at 37 °C and 5% CO2. After 24 h of incubation, Caco-2 cells were exposed to Cur and PCur solution with different Cur concentrations for 2 h. Meanwhile, serum-free medium incubation without drug was utilized as a control. MTT solution (20 μL, 5 mg/mL in PBS) was then added to each well, and the cells were further incubated for 4 h. The supernatant was removed and 100 μL of DMSO was introduced to each well to dissolve formazan crystals. Optical density (OD) was measured with a microplate reader (Thermo Scientific, Waltham, MA) at 570 nm. The experiments were repeated at least four times. Cell viability (%) was calculated as the ratio of OD in test samples to OD in control samples."}, "[5]": {"test_system": "Caco-2 cells", "test": "LDH release assay", "settings": "25 μg/mL Cur, within 2 h, versus control", "protocol": "A lactate dehydrogenase (LDH) assay kit (Beyotime, Haimen, China) was used to determine the ability of PCur to destroy cell membranes. Briefly, Caco-2 cells seeded in a 96-well plate were incubated with Cur solution and PCur at 25 μg/mL concentration of Cur for 2 h, and serum-free medium was used as a control. After 1 h of incubation, 20 μL LDH release medium was added, followed by 1 h of co-incubation. One hundred and twenty microliter supernatant was transferred to a new plate at a determined time interval, followed by the addition of 60 μL LDH test medium and incubated for 30 min with gentle shaking. Finally, the absorption was measured at 490 nm on a microplate reader (Bio-Rad 500, Hercules, CA)."}, "[6]": {"test": "In vitro release of Cur from PCur in pH 7.4 PBS with or without GSH", "type": "physicochemical"}, "[7]": {"test": "In vitro stability testing of PCur (size by DLS, morphology by TEM)", "type": "physicochemical", "settings": "37 °C", "excerpt": "A small portion of solution was collected at predetermined time points to measure the size distribution of PCur conjugate by DLS."}, "[8]": {"test": "In vitro release of PCur under different pH conditions", "type": "physicochemical", "procedure": "Effect of pH values on drug release was also evaluated in the following buffers: hydrochloric acid/potassium chloride (pH 1.2), acetic acid/sodium acetate (pH 6.5) and PBS (pH 7.4). Buffer selection was based on the normal variations of the pH in the GIT from the stomach (pH 1.5) and the proximal small intestine (pH 6.0–6.8) to the ileocecal region (pH 7.3) (Hua et al., [2015]). One milliliter of sample (containing 1.2 mg of Cur) was placed in a dialysis bag, immersed into each media containing 0.1% (w/v) Tween 80 for drug release."}, "[9]": {"test": "Pharmacokinetic study after oral administration", "design": "species or system Sprague–Dawley (SD) rats", "settings": "rat, in vivo, 50 mg/kg", "procedure": "Pharmacokinetics of PCur and Cur suspension were tested in SD rats, which were randomly divided into two study groups with six in each group. […] Three hundred microliter of blood samples were collected at 5, 10, 15, 30 and 45 min, 1, 2, 4, 8, 12 and 24 h post oral gavage and centrifuged at 12 000 rpm for 10 min. The supernatant plasma was collected and stored at −20 °C for UPLC–MS/MS analysis. The concentration of Cur was determined by a Waters ACQUITY UPLC system using a Xevo Triple Quadrupole MS equipped with an electrospray ionization (ESI) interface (Waters Co., Milford, MA). One hundred microliter plasma was mixed with 50 μL chloramphenicol (IS) and 50 μL acetonitrile, followed by vortexing for 3 min, and centrifuged at 12 000 rpm for 10 min. […] An aliquot of 5 μL was injected into the UPLC–MS/MS for analysis. Pharmacokinetic parameters were calculated using DAS 2.1 software (BioGuider Co., Shanghai, China)."}, "[10]": {"test_system": "MPO activity", "test": "Myeloperoxidase (MPO) activity in colon of DSS-induced IBD mice", "type": "in vivo, female C57BL/6 mice", "settings": "oral, Cur 50 mg/kg", "procedure": "as §1, with “[2013]). Neutrophil infiltration into the colon can be quantified by measuring MPO activity. […]” for “[2013]).”, “homogenate was then sonicated for 10 s, freeze-thawed three times,” for “levels of IL-6”, “centrifuged at 12 000 rpm for 15 min. The supernatant was then added to 1 mg/mL o-dianisidine hydrochloride and 0.0005% hydrogen peroxide, and the change” for “TNF-α”, “absorbance at 460 nm was measured.” for “homogenized colonic tissue were measured by quantitative enzyme-linked immunosorbent assay (ELISA) kits according to manufacturer’s instructions (R&D Systems Inc., Minneapolis, MN). The final values of IL-6 and TNF-α were expressed as pg/mg or ng/mg protein (Qiao et al., [2014]).”"}, "[11]": {"test_system": "MDA content", "test": "Malondialdehyde (MDA) content of colon of DSS-induced IBD mice", "type": "in vivo, female C57BL/6 mice", "settings": "oral, Cur 50 mg/kg", "procedure": "as §1, with “Lipid peroxidation was evaluated by measuring the MDA content” for “The levels”, “the colon” for “IL-6 and TNF-α in homogenized colonic tissue were measured by quantitative enzyme-linked immunosorbent assay (ELISA) kits”, “standard procedure protocol described in MDA Assay Kit (Beyotime, Haimen, China). In short, the colorimetric determination of MDA is based on the reaction of the reactive aldehyde with thiobarbituric acid at low pH (2–3) and temperature of 95 °C for 45 min.” for “manufacturer’s instructions (R&D Systems Inc., Minneapolis, MN).”, “pinkish resultant was extracted by n-butanol,” for “final values of IL-6”, “the absorbance was determined at 535 and 520 nm spectrophotometrically. […]” for “TNF-α were expressed as pg/mg or ng/mg protein (Qiao et al., [2014]).”"}, "[12]": {"test": "Drug-loading content (Cur content in PCur)", "type": "physicochemical"}, "[13]": {"test": "Particle size and zeta potential by dynamic light scattering", "type": "physicochemical", "settings": "in water, 25 °C"}, "[14]": {"test_system": "Caco-2 cell monolayer", "test": "Transcellular study, apparent permeability coefficient", "type": "in vitro ADME", "procedure": "A 400 μL of culture medium was added to the apical (AP) side, and 600 μL was added to the basolateral (BL) side. The medium in both the AP and BL sides was changed every two days for the first week and every day thereafter. After 21 days of incubation, the integrity of the cell monolayers was evaluated by measuring transepithelial electrical resistance (TEER) values using a Millicell® electrical resistance system (Millipore, Billerica, MA). When the TEER value of inserts exceeded […], indicating cell monolayers were integrated and tight junctions were intact, they were selected for further transport studies. For transcellular research, the culture medium in the AP and BL side was removed and changed by HBSS. […] Six hundred microliter of fresh HBSS was added to the BL side. […] One hundred microliter of sample was mixed with 50 μL chloramphenicol (IS) and 50 μL acetonitrile, vortexed and centrifuged. The concentration of Cur in supernatant was determined by UPLC–MS/MS. At the end of the experiment, TEER values were assayed to estimate the integrity of the cell monolayers. The apparent permeability coefficient (Papp) for Cur was calculated according to the following equation: Papp=(dQ/dt)/(A×C0) where the dQ/dt was the drug permeation rate, A was the surface area of polycarbonate membrane and C0 was the initial concentration of Cur in AP side."}}, "note": "Marks after values point to notes of the source that are not given here."}
{"molecule": "O=C(O)c1cc(/N=N/c2ccc(S(=O)(=O)Nc3ccccn3)cc2)ccc1O", "note": "[SSZ, sulfasalazine, reference compound]", "values": [{"measurement": "inhibition of the production of TNF-α in colonic tissue", "setting": "[1]", "result": "strongest efficacy"}, {"measurement": "inhibition of the production of IL-6 in colonic tissue", "setting": "[2]", "result": "strongest efficacy"}, {"measurement": "disease activity index (DAI)", "setting": "[3]", "result": "successfully mitigated"}, {"measurement": "recovery of shortened colon length", "setting": "[3]", "result": "strongest efficacies"}, {"measurement": "weight loss", "setting": "[3]", "result": "less weight loss"}]}
{"molecule": "COc1cc(/C=C/C(=O)CC(=O)/C=C/c2ccc(O)c(OC)c2)ccc1O", "note": "[Cur solution, Curcumin]", "values": [{"measurement": "cellular viability", "setting": "[4]", "result": "neither Cur solution nor PCur induced any significant changes"}, {"measurement": "LDH leakage", "setting": "[5]", "result": "no significant LDH leakage"}]}
{"molecule": "PEG-ss-curcumin [PCur]", "values": [{"measurement": "Cur released", "setting": "[6]; pH 7.4 PBS with 10 mM GSH, in 2 h", "result": "~30", "unit": "%"}, {"measurement": "Cur released", "setting": "[6]; pH 7.4 PBS with 10 mM GSH, within 24 h", "result": 53, "unit": "%"}, {"measurement": "Cur released", "setting": "[6]; pH 7.4 buffer, without or with 10 μM GSH, first 2 h", "result": "less than 10%"}, {"measurement": "Cur released", "setting": "[6]; pH 7.4 buffer, without or with 10 μM GSH, within 24 h", "result": "approximately 15%"}, {"measurement": "change of particle size distribution", "setting": "[7]; pH 1.2 and pH 7.4 PBS", "result": "little change"}, {"measurement": "change of mean diameter", "setting": "[7]; pH 7.4 PBS with 10 mM GSH", "result": "substantially increased"}, {"measurement": "Cur released", "setting": "[8]; buffer of pH 6.5, 24 h", "result": "less than 25%"}, {"measurement": "Cur released", "setting": "[8]; buffer of pH 6.5, first 2 h", "result": 10, "unit": "%"}, {"measurement": "pH-responsive release characteristic", "setting": "[8]; pH 7.4, 6.5 and 1.2", "result": "No significant pH-responsive release characteristic"}, {"measurement": "AUC0–24 h", "setting": "[9]", "result": "202.05 ± 6.72^b h ng/mL"}, {"measurement": "AUC0–∞", "setting": "[9]", "result": "223.52 ± 5.25^b h ng/mL"}, {"measurement": "AUC(0 − 24) increase relative to Cur suspension", "setting": "[9]", "result": 8.63, "unit": "times"}, {"measurement": "Cmax", "setting": "[9]", "result": "23.35 ± 0.96^b ng/mL"}, {"measurement": "Cmax relative to Cur suspension", "setting": "[9]", "result": 3.41, "unit": "fold"}, {"measurement": "MRT0–∞", "setting": "[9]", "result": "9.60 ± 2.28^a h"}, {"measurement": "T1/2", "setting": "[9]", "result": "6.77 ± 1.40", "unit": "h"}, {"measurement": "Tmax", "setting": "[9]", "result": "0.50 ± 0.25^a h"}, {"measurement": "inhibition of the production of TNF-α in colonic tissue", "setting": "[1]", "result": "strongest efficacy"}, {"measurement": "MPO activity in colonic tissue", "setting": "[10]", "result": "strongly decreased"}, {"measurement": "inhibition of the production of IL-6 in colonic tissue", "setting": "[2]", "result": "strongest efficacy"}, {"measurement": "disease activity index (DAI)", "setting": "[3]", "result": "successfully mitigated"}, {"measurement": "recovery of shortened colon length", "setting": "[3]", "result": "strongest efficacies"}, {"measurement": "weight loss", "setting": "[3]", "result": "less weight loss"}, {"measurement": "histological examination of colon (H&E)", "setting": "[3]; day 7, versus DSS mice receiving PBS or Cur suspension", "result": "intact epitheliums, well-defined crypt structures and relatively low levels of neutrophil invasion"}, {"measurement": "MDA content in colonic tissue", "setting": "[11]", "result": "strongly decreased"}, {"measurement": "loading content", "setting": "[12]; calculated from integrated areas of 1H NMR spectra", "result": 12.5, "unit": "%"}, {"measurement": "loading content", "setting": "[12]; determined by fluorescence spectra", "result": "~14.6", "unit": "%"}, {"measurement": "average particle size", "setting": "[13]; DLS", "result": "134.4 ± 4.2", "unit": "nm"}, {"measurement": "Zeta potential", "setting": "[13]", "result": "−3.3 ± 1.2", "unit": "mV"}, {"measurement": "apparent permeability coefficient (Papp) of Cur", "setting": "[14]", "result": "2.38 ± 0.29 × 10^−6 cm/s"}]}
